Measured values as given in paper PMC7831379.

Target: pre-stabilized HIV-1 CA A14C/E45C/W184A/M185A hexamer (HIV-1)
Experiment: crystal structure

“pre-stabilized HIV-1 CA A14C/E45C/W184A/M185A hexamer (natural protein)” was tested. Which stoichiometry N did it give?
The stoichiometry N was 6.
